# In US20230203107A1, “PEPTIDE FOR TREATING SEPSIS DERIVED FROM RV3364C PROTEIN OF MYCOBACTERIUM TUBERCULOSIS” (priority 2021, published 2023):
# Molecular target: T1, SNX9 BAR domain (Homo sapiens, UniProt Q9Y5X1)
# T1 construct: different regions 1-595, 1-250, 250-361, and 392-595 of SNX9; expressed in transfected cells; host or cells: 293T (pEF-IRES-Puro expression vector)
# Type: cell-based
# T1 sequence (Q9Y5X1 392-595): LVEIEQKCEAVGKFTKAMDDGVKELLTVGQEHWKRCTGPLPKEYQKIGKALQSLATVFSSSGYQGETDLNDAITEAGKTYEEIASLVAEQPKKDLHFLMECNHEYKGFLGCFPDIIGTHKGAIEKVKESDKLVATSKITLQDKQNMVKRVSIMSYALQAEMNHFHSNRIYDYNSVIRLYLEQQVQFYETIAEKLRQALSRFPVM
substance,measurement,value
"Rv3364c: Rv3364c protein of Mycobacterium tuberculosis, expressed in 293T cells from a Flag-tagged plasmid",domain of SNX9 interacting with Rv3364c,interacted with SNX9 through a Bin-Amphiphysin-Rvs (BAR) domain
